The RNAGym collection of RNA variant scans (doi:10.1021/acssynbio.7b00057)

B1: Pistol ribozyme (parent)
chain: GGGUCGUUGUUCCAUAAUCGCGUGGAUAUGGCACGCAAGUUUCUACCGGGCACCGUAAAUGUCCGACUGGAGCCGUUCGGGCGGCUAUAAACAGACCUCAGGCCCGAAGCGUGGCGGCACCUGCCGCCGGUGGUAAAAAAGAUCGGAAGAGCACACGUCU

Variants of: B1
Assay: aptazyme ON/OFF ratio, guanine; higher = stronger switching; co-transcriptional cleavage with and without guanine

In order of rising “aptazyme ON/OFF ratio” value:
1. GGGUCGCGGACCAAUAAUCGCGUGGAUAUGGCACGCAAGUUUCUACCGGGCACCGUAAAUGUCCGACUGGAGCCGUUCGGGCGGCUAUAAACAGACCUCAGGCCCGAAGCGUGGCGGCACCUGCCGCCGGUGGUAAAAAAGAUCGGAAGAGCACACGUCU  1.02
2. GGGUCGCAAUGCGAUAAUCGCGUGGAUAUGGCACGCAAGUUUCUACCGGGCACCGUAAAUGUCCGACUGGAGCCGUUCGGGCGGCUAUAAACAGACCUCAGGCCCGAAGCGUGGCGGCACCUGCCGCCGGUGGUAAAAAAGAUCGGAAGAGCACACGUCU  1.04
3. GGGUCGGCCGAUCAUAAUCGCGUGGAUAUGGCACGCAAGUUUCUACCGGGCACCGUAAAUGUCCGACUGGAGCCGUUCGGGCGGCUAUAAACAGACCUCAGGCCCGAAGCGUGGCGGCACCUGCCGCCGGUGGUAAAAAAGAUCGGAAGAGCACACGUCU  1.04
4. GGGUCGCGCCCCCAUAAUCGCGUGGAUAUGGCACGCAAGUUUCUACCGGGCACCGUAAAUGUCCGACUGGAGCCGUUCGGGCGGCUAUAAACAGACCUCAGGCCCGAAGCGUGGCGGCACCUGCCGCCGGUGGUAAAAAAGAUCGGAAGAGCACACGUCU  1.04
5. GGGUCGGCGACCUAUAAUCGCGUGGAUAUGGCACGCAAGUUUCUACCGGGCACCGUAAAUGUCCGACUGGAGCCGUUCGGGCGGCUAUAAACAGACCUCAGGCCCGAAGCGUGGCGGCACCUGCCGCCGGUGGUAAAAAAGAUCGGAAGAGCACACGUCU  1.04
6. GGGUCGGGCACAGAUAAUCGCGUGGAUAUGGCACGCAAGUUUCUACCGGGCACCGUAAAUGUCCGACUGGAGCCGUUCGGGCGGCUAUAAACAGACCUCAGGCCCGAAGCGUGGCGGCACCUGCCGCCGGUGGUAAAAAAGAUCGGAAGAGCACACGUCU  1.06
7. GGGUCGCUAACUCAUAAUCGCGUGGAUAUGGCACGCAAGUUUCUACCGGGCACCGUAAAUGUCCGACUGGAGCCGUUCGGGCGGCUAUAAACAGACCUCAGGCCCGAAGCGUGGCGGCACCUGCCGCCGGUGGUAAAAAAGAUCGGAAGAGCACACGUCU  1.07
8. GGGUCGAAUCGUGAUAAUCGCGUGGAUAUGGCACGCAAGUUUCUACCGGGCACCGUAAAUGUCCGACUGGAGCCGUUCGGGCGGCUAUAAACAGACCUCAGGCCCGAAGCGUGGCGGCACCUGCCGCCGGUGGUAAAAAAGAUCGGAAGAGCACACGUCU  1.07
9. GGGUCGUCCAGACAUAAUCGCGUGGAUAUGGCACGCAAGUUUCUACCGGGCACCGUAAAUGUCCGACUGGAGCCGUUCGGGCGGCUAUAAACAGACCUCAGGCCCGAAGCGUGGCGGCACCUGCCGCCGGUGGUAAAAAAGAUCGGAAGAGCACACGUCU  1.07
10. GGGUCGUGUAUCAAUAAUCGCGUGGAUAUGGCACGCAAGUUUCUACCGGGCACCGUAAAUGUCCGACUGGAGCCGUUCGGGCGGCUAUAAACAGACCUCAGGCCCGAAGCGUGGCGGCACCUGCCGCCGGUGGUAAAAAAGAUCGGAAGAGCACACGUCU  1.1
11. GGGUCGGAUCGCAAUAAUCGCGUGGAUAUGGCACGCAAGUUUCUACCGGGCACCGUAAAUGUCCGACUGGAGCCGUUCGGGCGGCUAUAAACAGACCUCAGGCCCGAAGCGUGGCGGCACCUGCCGCCGGUGGUAAAAAAGAUCGGAAGAGCACACGUCU  1.1
12. GGGUCGGAUGAAAAUAAUCGCGUGGAUAUGGCACGCAAGUUUCUACCGGGCACCGUAAAUGUCCGACUGGAGCCGUUCGGGCGGCUAUAAACAGACCUCAGGCCCGAAGCGUGGCGGCACCUGCCGCCGGUGGUAAAAAAGAUCGGAAGAGCACACGUCU  1.12
13. GGGUCGCCCAAAUAUAAUCGCGUGGAUAUGGCACGCAAGUUUCUACCGGGCACCGUAAAUGUCCGACUGGAGCCGUUCGGGCGGCUAUAAACAGACCUCAGGCCCGAAGCGUGGCGGCACCUGCCGCCGGUGGUAAAAAAGAUCGGAAGAGCACACGUCU  1.13
14. GGGUCGGUAUCAGAUAAUCGCGUGGAUAUGGCACGCAAGUUUCUACCGGGCACCGUAAAUGUCCGACUGGAGCCGUUCGGGCGGCUAUAAACAGACCUCAGGCCCGAAGCGUGGCGGCACCUGCCGCCGGUGGUAAAAAAGAUCGGAAGAGCACACGUCU  1.14
15. GGGUCGCAUUCGCAUAAUCGCGUGGAUAUGGCACGCAAGUUUCUACCGGGCACCGUAAAUGUCCGACUGGAGCCGUUCGGGCGGCUAUAAACAGACCUCAGGCCCGAAGCGUGGCGGCACCUGCCGCCGGUGGUAAAAAAGAUCGGAAGAGCACACGUCU  1.14
16. GGGUCGAACUAGAAUAAUCGCGUGGAUAUGGCACGCAAGUUUCUACCGGGCACCGUAAAUGUCCGACUGGAGCCGUUCGGGCGGCUAUAAACAGACCUCAGGCCCGAAGCGUGGCGGCACCUGCCGCCGGUGGUAAAAAAGAUCGGAAGAGCACACGUCU  1.15
17. GGGUCGUACAACAAUAAUCGCGUGGAUAUGGCACGCAAGUUUCUACCGGGCACCGUAAAUGUCCGACUGGAGCCGUUCGGGCGGCUAUAAACAGACCUCAGGCCCGAAGCGUGGCGGCACCUGCCGCCGGUGGUAAAAAAGAUCGGAAGAGCACACGUCU  1.16
18. GGGUCGCUACAAUAUAAUCGCGUGGAUAUGGCACGCAAGUUUCUACCGGGCACCGUAAAUGUCCGACUGGAGCCGUUCGGGCGGCUAUAAACAGACCUCAGGCCCGAAGCGUGGCGGCACCUGCCGCCGGUGGUAAAAAAGAUCGGAAGAGCACACGUCU  1.16
19. GGGUCGUGCGGUAAUAAUCGCGUGGAUAUGGCACGCAAGUUUCUACCGGGCACCGUAAAUGUCCGACUGGAGCCGUUCGGGCGGCUAUAAACAGACCUCAGGCCCGAAGCGUGGCGGCACCUGCCGCCGGUGGUAAAAAAGAUCGGAAGAGCACACGUCU  1.16
20. GGGUCGGCUAAUGAUAAUCGCGUGGAUAUGGCACGCAAGUUUCUACCGGGCACCGUAAAUGUCCGACUGGAGCCGUUCGGGCGGCUAUAAACAGACCUCAGGCCCGAAGCGUGGCGGCACCUGCCGCCGGUGGUAAAAAAGAUCGGAAGAGCACACGUCU  1.16
21. GGGUCGCCAAACAAUAAUCGCGUGGAUAUGGCACGCAAGUUUCUACCGGGCACCGUAAAUGUCCGACUGGAGCCGUUCGGGCGGCUAUAAACAGACCUCAGGCCCGAAGCGUGGCGGCACCUGCCGCCGGUGGUAAAAAAGAUCGGAAGAGCACACGUCU  1.18
22. GGGUCGUGUUAUAAUAAUCGCGUGGAUAUGGCACGCAAGUUUCUACCGGGCACCGUAAAUGUCCGACUGGAGCCGUUCGGGCGGCUAUAAACAGACCUCAGGCCCGAAGCGUGGCGGCACCUGCCGCCGGUGGUAAAAAAGAUCGGAAGAGCACACGUCU  1.19
23. GGGUCGUCCACUAAUAAUCGCGUGGAUAUGGCACGCAAGUUUCUACCGGGCACCGUAAAUGUCCGACUGGAGCCGUUCGGGCGGCUAUAAACAGACCUCAGGCCCGAAGCGUGGCGGCACCUGCCGCCGGUGGUAAAAAAGAUCGGAAGAGCACACGUCU  1.19
24. GGGUCGAUACUAUAUAAUCGCGUGGAUAUGGCACGCAAGUUUCUACCGGGCACCGUAAAUGUCCGACUGGAGCCGUUCGGGCGGCUAUAAACAGACCUCAGGCCCGAAGCGUGGCGGCACCUGCCGCCGGUGGUAAAAAAGAUCGGAAGAGCACACGUCU  1.21
25. GGGUCGUGCUGUUAUAAUCGCGUGGAUAUGGCACGCAAGUUUCUACCGGGCACCGUAAAUGUCCGACUGGAGCCGUUCGGGCGGCUAUAAACAGACCUCAGGCCCGAAGCGUGGCGGCACCUGCCGCCGGUGGUAAAAAAGAUCGGAAGAGCACACGUCU  1.25
26. GGGUCGCCGCGAGAUAAUCGCGUGGAUAUGGCACGCAAGUUUCUACCGGGCACCGUAAAUGUCCGACUGGAGCCGUUCGGGCGGCUAUAAACAGACCUCAGGCCCGAAGCGUGGCGGCACCUGCCGCCGGUGGUAAAAAAGAUCGGAAGAGCACACGUCU  1.27
27. GGGUCGUUAACGGAUAAUCGCGUGGAUAUGGCACGCAAGUUUCUACCGGGCACCGUAAAUGUCCGACUGGAGCCGUUCGGGCGGCUAUAAACAGACCUCAGGCCCGAAGCGUGGCGGCACCUGCCGCCGGUGGUAAAAAAGAUCGGAAGAGCACACGUCU  1.27
28. GGGUCGUUUUCGGAUAAUCGCGUGGAUAUGGCACGCAAGUUUCUACCGGGCACCGUAAAUGUCCGACUGGAGCCGUUCGGGCGGCUAUAAACAGACCUCAGGCCCGAAGCGUGGCGGCACCUGCCGCCGGUGGUAAAAAAGAUCGGAAGAGCACACGUCU  1.28
29. GGGUCGCCGACACAUAAUCGCGUGGAUAUGGCACGCAAGUUUCUACCGGGCACCGUAAAUGUCCGACUGGAGCCGUUCGGGCGGCUAUAAACAGACCUCAGGCCCGAAGCGUGGCGGCACCUGCCGCCGGUGGUAAAAAAGAUCGGAAGAGCACACGUCU  1.29
30. GGGUCGGCCGCGAAUAAUCGCGUGGAUAUGGCACGCAAGUUUCUACCGGGCACCGUAAAUGUCCGACUGGAGCCGUUCGGGCGGCUAUAAACAGACCUCAGGCCCGAAGCGUGGCGGCACCUGCCGCCGGUGGUAAAAAAGAUCGGAAGAGCACACGUCU  1.29
31. GGGUCGAAGGGACAUAAUCGCGUGGAUAUGGCACGCAAGUUUCUACCGGGCACCGUAAAUGUCCGACUGGAGCCGUUCGGGCGGCUAUAAACAGACCUCAGGCCCGAAGCGUGGCGGCACCUGCCGCCGGUGGUAAAAAAGAUCGGAAGAGCACACGUCU  1.3
32. GGGUCGUGGGAUCAUAAUCGCGUGGAUAUGGCACGCAAGUUUCUACCGGGCACCGUAAAUGUCCGACUGGAGCCGUUCGGGCGGCUAUAAACAGACCUCAGGCCCGAAGCGUGGCGGCACCUGCCGCCGGUGGUAAAAAAGAUCGGAAGAGCACACGUCU  1.38
33. GGGUCGAGGGGCCAUAAUCGCGUGGAUAUGGCACGCAAGUUUCUACCGGGCACCGUAAAUGUCCGACUGGAGCCGUUCGGGCGGCUAUAAACAGACCUCAGGCCCGAAGCGUGGCGGCACCUGCCGCCGGUGGUAAAAAAGAUCGGAAGAGCACACGUCU  1.44
34. GGGUCGGUUUUCUAUAAUCGCGUGGAUAUGGCACGCAAGUUUCUACCGGGCACCGUAAAUGUCCGACUGGAGCCGUUCGGGCGGCUAUAAACAGACCUCAGGCCCGAAGCGUGGCGGCACCUGCCGCCGGUGGUAAAAAAGAUCGGAAGAGCACACGUCU  1.45
35. GGGUCGUCUAAUUAUAAUCGCGUGGAUAUGGCACGCAAGUUUCUACCGGGCACCGUAAAUGUCCGACUGGAGCCGUUCGGGCGGCUAUAAACAGACCUCAGGCCCGAAGCGUGGCGGCACCUGCCGCCGGUGGUAAAAAAGAUCGGAAGAGCACACGUCU  1.5
36. GGGUCGCGUUACCAUAAUCGCGUGGAUAUGGCACGCAAGUUUCUACCGGGCACCGUAAAUGUCCGACUGGAGCCGUUCGGGCGGCUAUAAACAGACCUCAGGCCCGAAGCGUGGCGGCACCUGCCGCCGGUGGUAAAAAAGAUCGGAAGAGCACACGUCU  1.58
